Values quoted from earlier work as cited in PMC4070987.

Target: alkaline protease inhibitor (Pseudomonas aeruginosa) (UniProt Q03026)
UniProt Q03026, sequence (Q03026 27-131): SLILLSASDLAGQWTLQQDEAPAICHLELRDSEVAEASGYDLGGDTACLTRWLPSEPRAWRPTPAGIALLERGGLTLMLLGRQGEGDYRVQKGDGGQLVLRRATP

alkaline protease (AP) (from UniProt Q03023)
Kd: 4 pM
